Test results as given in publication PMC4159253.

Target: F241A IgG1 Fc fragment (human)
Experiment: crystal structure

F241A IgG1 Fc fragment (domain or fragment)
stoichiometry N: 2
